From US20100248978A1, “METHOD FOR IDENTIFYING THE INTERACTION PARTNER OF AN ACTIVE AGENT” (Bayer Cropscience AG, priority 2007, published 2010)

Assays:
control proteins = assay: nitrocellulose filter retention assay with control proteins as negative controls; format: binding; conditions: HPPD replaced by an equivalent concentration of control proteins
Protocol: Recombinant, His-tagged HPPD was targeted as an interaction partner in two SELEX runs, referred to as S115A and S115E, which comprised 12 and 9 cycles, respectively. Briefly, the protein was biotinylated and exposed to the RNA library with a 47 nucleotide random region (N47α) in 20 mM Hepes (pH 7.4), 150 mM NaCl, 3 mM MgCl2, and 1 mg/ml BSA (in vitro selection 5115A) or 20 mM Hepes (pH 7.4), 150 mM NaCl, 3 mM MgCl2, 10% DMSO and 1 mg/ml BSA (in vitro selection S115B). The library N47α consists of a random region of 47 nucleotides which is flanked by fixed sequences at the 5′ and 3′ end that serve as primer annealing sites for the amplification of the selected aptamer sequences via reverse transcription and PCR. The 5′ region additionally contains the sequence of an T7-RNA polymerase promoter that enables the transcription of the PCR DNA template into RNA. The sense sequence of the PCR DNA template is “5″-[…]-N47-[…]-3′ (SEQ. ID No. 1). The T7-RNA polymerase promoter is underlined. The double stranded DNA template was used to transcribe the initial RNA library. […] RNA bound to the target protein is retained within the complex on the filter and was quantified by a phosphoimager. Values were calculated as the percentage of total radiolabeled RNA in the reaction.
(§1) The dissociation constant (FIG. 4B) was determined to be 128±11 nM. consistent with strong binding to S115A-C1 to recombinant HPPD.

[1] = target: T1, recombinant, His-tagged HPPD (p-hydroxyphenylpyruvate dioxygenase) (Arabidopsis thaliana, UniProt P93836); assay: nitrocellulose filter retention assay, binding of radioactively labelled RNA to recombinant HPPD; conditions: monoclonal aptamer, recombinant HPPD at various concentrations; read-out: dissociation constant
T1 construct: His-tag
T1 sequence (P93836 1-445): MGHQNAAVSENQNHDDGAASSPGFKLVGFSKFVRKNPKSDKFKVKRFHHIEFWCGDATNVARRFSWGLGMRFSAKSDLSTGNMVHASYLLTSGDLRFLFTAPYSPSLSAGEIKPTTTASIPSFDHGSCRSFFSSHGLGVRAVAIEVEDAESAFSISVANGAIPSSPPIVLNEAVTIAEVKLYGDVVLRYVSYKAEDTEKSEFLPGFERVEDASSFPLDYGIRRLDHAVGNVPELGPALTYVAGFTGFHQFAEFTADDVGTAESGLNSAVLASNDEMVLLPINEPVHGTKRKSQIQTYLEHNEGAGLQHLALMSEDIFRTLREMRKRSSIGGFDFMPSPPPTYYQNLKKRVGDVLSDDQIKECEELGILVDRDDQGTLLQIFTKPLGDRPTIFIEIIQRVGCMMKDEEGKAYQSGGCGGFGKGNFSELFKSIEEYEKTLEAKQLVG
Protocol: Recombinant, His-tagged HPPD was targeted as an interaction partner in two SELEX runs, referred to as S115A and S115E, which comprised 12 and 9 cycles, respectively. Briefly, the protein was biotinylated and exposed to the RNA library with a 47 nucleotide random region (N47α) in 20 mM Hepes (pH 7.4), 150 mM NaCl, 3 mM MgCl2, and 1 mg/ml BSA (in vitro selection 5115A) or 20 mM Hepes (pH 7.4), 150 mM NaCl, 3 mM MgCl2, 10% DMSO and 1 mg/ml BSA (in vitro selection S115B). The library N47α consists of a random region of 47 nucleotides which is flanked by fixed sequences at the 5′ and 3′ end that serve as primer annealing sites for the amplification of the selected aptamer sequences via reverse transcription and PCR. The 5′ region additionally contains the sequence of an T7-RNA polymerase promoter that enables the transcription of the PCR DNA template into RNA. The sense sequence of the PCR DNA template is “5″-[…]-N47-[…]-3′ (SEQ. ID No. 1). The T7-RNA polymerase promoter is underlined. The double stranded DNA template was used to transcribe the initial RNA library. The procedures to produce an RNA library and to perform a SELEX experiment are well known to a person skilled in the art and described in, e.g., Methods in Enzymology, Vol 267, Combinatorial Chemistry (1996), Abelson J. N. and Simon M. I., eds. Academic Press, San Diego. Subsequently, the complexes between target and RNA were captured on streptavidin-coated beads and unbound RNA was removed by washing with binding buffer. […] RNA bound to the target protein is retained within the complex on the filter and was quantified by a phosphoimager. Values were calculated as the percentage of total radiolabeled RNA in the reaction.
as §1
To determine the binding properties of individual aptamers isolated as part of the mixture of aptamers binding to HPPD in the previous example, aptamers were cloned into a vector, and 24 clones were sequenced. For each experiment out of S116B, S116C and S116D, one of the cloned aptamers subsequently identified as specific ligands to HPPD (termed S116C-C18 (5″-GGGAGAGGAGGGAGAUAGAUAUCAAUAUCGCCACGUUACGAGUACCAAGCUULJ […]-3″ (SEQ. ID. No. 3)), S116B-C4 (5′-[…] UGG-3′ (SEQ. ID. No. 4)) and S116D-C8 (5″-GGGAGAGGAGGG […]-3′) (SEQ. ID. No. 5)) was analysed with respect to the thermodynamics of the binding. […] The dissociation constants determined for S116B-C4, S116C-C18 and S116D-C8, were 740±39, 832±39 and 120±9 nM, respectively, consistent with the view that decreasing the concentration of the interaction partner to 2 pM (experiment S116D) actually yield the most tightly binding aptamer.

recombinant HPPD = target: T2, recombinant HPPD (Arabidopsis thaliana, UniProt P93836); assay: pull down of recombinant HPPD with biotinylated aptamers immobilised on streptavidin beads (SDS-PAGE); format: binding; conditions: for pull down of HPPD (protein band on SDS-PAGE): 10 μg of HPPD, in the absence of protein extract
T2 construct: His-tag
T2 sequence (P93836 1-445): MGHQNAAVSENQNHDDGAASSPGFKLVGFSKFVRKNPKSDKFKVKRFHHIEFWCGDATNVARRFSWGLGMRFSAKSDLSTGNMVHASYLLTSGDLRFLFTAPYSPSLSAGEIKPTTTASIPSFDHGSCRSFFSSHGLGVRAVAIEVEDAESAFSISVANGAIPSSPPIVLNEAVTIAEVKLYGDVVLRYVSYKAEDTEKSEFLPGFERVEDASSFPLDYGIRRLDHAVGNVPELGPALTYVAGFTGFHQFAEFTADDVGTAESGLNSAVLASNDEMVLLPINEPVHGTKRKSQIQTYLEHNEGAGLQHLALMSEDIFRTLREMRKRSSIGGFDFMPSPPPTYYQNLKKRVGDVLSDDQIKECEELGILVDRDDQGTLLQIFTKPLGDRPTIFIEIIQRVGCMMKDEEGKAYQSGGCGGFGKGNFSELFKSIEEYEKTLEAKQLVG
Text: To confirm the concept that aptamers isolated using the competitive SELEX approach can be used to identify the interaction partner of interest, the two tightly binding aptamers S116C-C18 and S116D-C8, henceforth referred to as anti-HPPD aptamers, were biotinylated by in vitro transcription, using the appropriate DNA template and biotinylated ApG starter nucleotides (IBA, Göttingen) (Pitulle C. et al. (1992), Gene, 112(1):101-5; Gaur R. K. et al. (2004), Methods Mol. Biol. 252:9-17) and immobilised on paramagnetic streptavidin (SA) beads.
By contrast, the protein band assigned to HPPD was not visible when negative controls (beads only and N47α immobilised on beads) were used.

endogenous HPPD = target: T3, endogenous HPPD (Arabidopsis thaliana, UniProt P93836); assay: pull down of endogenous HPPD from protein extract with immobilised aptamer (SDS-PAGE); format: binding; conditions: protein extract only as the source of HPPD, no recombinant protein added
T3 construct: pull down endogenous HPPD in protein extract, i.e. no recombinant protein was added; from tissue; host or cells: protein extract from freeze-dried powder of Arabidopsis thaliana
T3 sequence (P93836 1-445): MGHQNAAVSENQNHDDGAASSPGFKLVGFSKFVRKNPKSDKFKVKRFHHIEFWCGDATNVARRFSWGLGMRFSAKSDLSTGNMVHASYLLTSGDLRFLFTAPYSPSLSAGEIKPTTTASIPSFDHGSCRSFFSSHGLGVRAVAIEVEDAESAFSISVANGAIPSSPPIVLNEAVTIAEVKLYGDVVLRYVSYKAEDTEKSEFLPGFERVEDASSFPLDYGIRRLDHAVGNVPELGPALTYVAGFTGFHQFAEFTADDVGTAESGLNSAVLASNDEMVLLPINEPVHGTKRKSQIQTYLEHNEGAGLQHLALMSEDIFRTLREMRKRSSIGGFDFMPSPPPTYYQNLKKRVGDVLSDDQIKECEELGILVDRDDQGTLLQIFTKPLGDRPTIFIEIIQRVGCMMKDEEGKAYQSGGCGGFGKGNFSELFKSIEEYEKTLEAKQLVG
Protocol: For a realistic proof of principle scenario representing attempts to identify an unknown interaction partner, biotinylated aptamer S116D-C8 was immobilised and used in attempts to pull down endogenous HPPD in protein extract, i.e. no recombinant protein was added. Again, appropriate controls such as N47α as a negative control and S116D-C8 together with recombinant HPPD were included.

| Molecule | binding to / retention by control proteins (control proteins) | Kd [1] [nM] | pull down of HPPD (protein band on SDS-PAGE) (recombinant HPPD) | pull down of recombinant HPPD (protein band on SDS-PAGE) (recombinant HPPD; different amounts of HPPD, in the presence of increasing amounts of PE) | pull down of endogenous HPPD (protein band on SDS-PAGE) (endogenous HPPD) |
| --- | --- | --- | --- | --- | --- |
| S115A-C1: monoclonal RNA aptamer binding HPPD from classical SELEX run S115A, SEQ. ID. No. 2 (nucleic acid, listed as RNA, chemistry not given here) GGGAGAGGAGGGAGAUAGAUAUCAACAAUGACUAGCCGUGUAAGUGGUCUCGUACAUCCGAAAAAGACGACCCAGUUUGUCCUCACGGUGGAUGG | not by any of the control proteins | 128 ± 11 | – | – | – |
| S116B-C4: monoclonal RNA aptamer, specific ligand to HPPD from competitive SELEX S116B, SEQ. ID. No. 4 (nucleic acid, RNA, backbone not given here) GGGAGAGGAGGGAGAUAGAUAUCAAGUAACAAAUGAUACUUUCCAAGCAUAAUUCAUUCGCAGCCCGAAUUAAGUUUGUCCUCACGGUGGAUGG | – | 740 ± 39 | – | – | – |
| S116C-C18 (nucleic acid, chemistry not given here) DNA: GGGAGAGGAGGGAGAUAGAUAUCAAUAUCGCCACGUUACGAGUACCAAGCUUUAUUUCCGCAGCCCGAUAGAGUUUGUCCUCACGGUGGAUGG | – | 832 ± 39 | could be used to pull down HPPD | – | – |
| S116D-C8: monoclonal RNA aptamer, specific ligand to HPPD from competitive SELEX S116D, SEQ. ID. No. 5 (nucleic acid, RNA, backbone not given here) GGGAGAGGAGGGAGAUAGAUAUCAAUAAAGUCGGUGACACCACGCAUCCAAAUACCGGUACGCGGAACUAAUAGUUUGUCCUCACGGUGGAUGG | – | 120 ± 9 | could be used to pull down HPPD | could be used to purify conveniently detectable amounts of HPPD | a protein band was visually detectable |
